Laboratory results taken from PMC6258048.
Read-outs that look alike come from different tables or passages of the source.

T1: Ascl1 B-HLH domain (UniProt Q02067)
T1 sequence: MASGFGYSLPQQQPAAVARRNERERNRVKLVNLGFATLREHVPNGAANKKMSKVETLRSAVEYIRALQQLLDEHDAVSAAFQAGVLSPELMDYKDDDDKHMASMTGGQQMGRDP

T2: Tcf3 B-HLH domain (E47) (UniProt P15806-2)
T2 sequence: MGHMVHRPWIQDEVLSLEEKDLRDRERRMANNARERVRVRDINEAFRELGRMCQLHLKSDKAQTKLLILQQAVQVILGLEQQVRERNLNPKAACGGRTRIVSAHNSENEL

T3: Tcf3 B-HLH domain (E47);Ascl1 B-HLH domain (;, UniProt P15806-2;Q02067 ;, |)
T3 sequence 1: T2 sequence
T3 sequence 2: T1 sequence

B1: CGCAG|GTG 28-mer 5caC(a)|5caC(b) (dsDNA)
DNA 1: CTGACCGATACGCAGGTGCCTGACTGAC
DNA 2: GTCAGTCAGGCACCTGCGTATCGGTCAG
modifications: 5caC at C11 of strand 1 and C17 of strand 2
B2: weak E-box CGCAA|ATG 28-mer C(a)|C(b) (dsDNA)
DNA 1: CTGACCCATACGCAAATGTCTGACTGAC
DNA 2: GTCAGTCAGACATTTGCGTATGGGTCAG
B3: weak E-box CGCAA|ATG 28-mer 5caC(a)|5caC(b) (dsDNA)
DNA 1: CTGACCCATACGCAAATGTCTGACTGAC
DNA 2: GTCAGTCAGACATTTGCGTATGGGTCAG
modifications: 5caC at C11 of strand 1 and C17 of strand 2

Assays:
Test in all cases: EMSA
[1] = target: Tcf4 B-HLH domain;Ascl1 B-HLH domain (;, UniProt Q60722;Q02067 ;, |)
[2] = target: Tcf4 B-HLH domain (UniProt Q60722)
[3] = target: Tcf12 B-HLH domain;Ascl1 B-HLH domain (;, UniProt Q61286;Q02067 ;, |)
[4] = target: T1, Ascl1 B-HLH domain
[5] = target: Tcf12 B-HLH domain (UniProt Q61286)
[6] = target: T2, Tcf3 B-HLH domain (E47)
[7] = target: T3, Tcf3 B-HLH domain (E47);Ascl1 B-HLH …
[8] = target: T3, Tcf3 B-HLH domain (E47);Ascl1 B-HLH …; remark: listed apart in the source

| Binder | binding signal [1] [fold binding vs N1] | binding signal [2] [fold binding vs N1] | binding signal [3] [fold binding vs N1] | binding signal [4] [fold binding vs N1] | binding signal [5] [fold binding vs N1] | binding signal [6] [fold binding vs N1] | binding signal [7] [fold binding vs N1] | binding signal [8] |
| --- | --- | --- | --- | --- | --- | --- | --- | --- |
| B1 | ~6 | ~3 | ~10 | ~6 | ~4 | ~2 | ~10 | – |
| B2 | – | – | – | – | – | – | – | ~100 fold weaker than N1 |
| B3 | – | – | – | – | – | – | – | ~10 fold binding vs N8 |
